Experiments:
[1] = molecular target: human polyclonal IgG (Gammanorm) (human); assay: dynamic binding capacity, 6 min residence; ligand […] on agarose beads
[2] = molecular target: human polyclonal IgG (Gammanorm) (human); assay: dynamic binding capacity, measured after 24 h cumulative exposure to 0.5 M NaOH; ligand 7.2 mg/ml on agarose beads
[3] = molecular target: human polyclonal IgG (Gammanorm) (human); assay: dynamic binding capacity, measured after six 4 h cycles in 1.0 M NaOH; ligand […] on agarose beads
[4] = molecular target: human polyclonal IgG (Gammanorm) (human); assay: dynamic binding capacity, measured after 24 h cumulative exposure to 0.5 M NaOH; ligand […] on agarose beads
[5] = molecular target: human polyclonal IgG (Gammanorm) (human); assay: dynamic binding capacity, 6 min residence; ligand […] on agarose beads; remark: listed apart in the source
[6] = molecular target: human polyclonal IgG (Gammanorm) (human); assay: dynamic binding capacity, 6 min residence; ligand 7.2 mg/ml on agarose beads
[7] = molecular target: human polyclonal IgG (Gammanorm) (human); assay: dynamic binding capacity, measured after six 4 h cycles in 1.0 M NaOH; ligand 9.7 mg/ml on agarose beads
[8] = molecular target: human polyclonal IgG (Gammanorm) (human); assay: dynamic binding capacity, 6 min residence; ligand 9.7 mg/ml on agarose beads
[9] = molecular target: human polyclonal IgG (Gammanorm) (human); assay: as above; remark: listed apart in the source
[10] = molecular target: human polyclonal IgG (Gammanorm) (human); assay: dynamic binding capacity, measured after 24 h cumulative exposure to 0.5 M NaOH; ligand 9.7 mg/ml on agarose beads
[11] = molecular target: human polyclonal IgG (Gammanorm) (human); assay: dynamic binding capacity, measured after 24 h cumulative exposure to 0.5 M NaOH; ligand 7.0 mg/ml on agarose beads
[12] = molecular target: human polyclonal IgG (Gammanorm) (human); assay: dynamic binding capacity, 6 min residence; ligand 7.0 mg/ml on agarose beads
[13] = molecular target: human polyclonal IgG (Gammanorm) (human); assay: dynamic binding capacity; matrix A56, ligand […]; conditions: ligand content 7.1 mg/ml
[14] = molecular target: human polyclonal IgG (Gammanorm) (human); assay: dynamic binding capacity; matrix A20, ligand […]
[15] = molecular target: human polyclonal IgG (Gammanorm) (human); assay: dynamic binding capacity; matrix C3, ligand 15.1 mg/ml
[16] = molecular target: human polyclonal IgG (Gammanorm) (human); assay: dynamic binding capacity; matrix A56, ligand 19.2 mg/ml
[17] = molecular target: human polyclonal IgG (Gammanorm) (human); assay: dynamic binding capacity; matrix S9, ligand 18.4 mg/ml
[18] = molecular target: human polyclonal IgG (Gammanorm) (human); assay: dynamic binding capacity; matrix H35, ligand 12.3 mg/ml
[19] = molecular target: human polyclonal IgG (Gammanorm) (human); assay: dynamic binding capacity; matrix A62a, ligand 9.6 mg/ml
[20] = molecular target: human polyclonal IgG (Gammanorm) (human); assay: pH 6-3 citrate gradient elution from column, peak 2; ligand […]
[21] = molecular target: human polyclonal IgG (Gammanorm) (human); assay: dynamic binding capacity; matrix A38, ligand […]
[22] = molecular target: human polyclonal IgG (Gammanorm) (human); assay: dynamic binding capacity; matrix A63b, ligand 10.6 mg/ml
[23] = molecular target: human polyclonal IgG (Gammanorm) (human); assay: dynamic binding capacity; matrix A56-2, ligand 19.2 mg/ml
[24] = molecular target: human polyclonal IgG (Gammanorm) (human); assay: dynamic binding capacity; matrix H31, ligand […]
[25] = molecular target: human polyclonal IgG (Gammanorm) (human); assay: pH 6-3 citrate gradient elution from column, peak 1; ligand […]
[26] = molecular target: human polyclonal IgG (Gammanorm) (human); assay: dynamic binding capacity; matrix H40, ligand […]; conditions: ligand content 6.9 mg/ml
[27] = molecular target: human polyclonal IgG (Gammanorm) (human); assay: dynamic binding capacity; matrix H40, ligand 23.0 mg/ml
[28] = molecular target: human polyclonal IgG (Gammanorm) (human); assay: dynamic binding capacity; matrix C3, ligand […]
[29] = molecular target: human polyclonal IgG (Gammanorm) (human); assay: dynamic binding capacity; matrix A63b, ligand 16.7 mg/ml
[30] = molecular target: human polyclonal IgG (Gammanorm) (human); assay: dynamic binding capacity; matrix A54, ligand […]; conditions: ligand content 6.7 mg/ml
[31] = molecular target: human polyclonal IgG (Gammanorm) (human); assay: dynamic binding capacity; matrix A38, ligand 15.8 mg/ml
[32] = molecular target: human polyclonal IgG (Gammanorm) (human); assay: dynamic binding capacity; matrix A33, ligand […]; conditions: ligand content 6.5 mg/ml
[33] = molecular target: human polyclonal IgG (Gammanorm) (human); assay: dynamic binding capacity; matrix C4, ligand 15.2 mg/ml
[34] = molecular target: human polyclonal IgG (Gammanorm) (human); assay: dynamic binding capacity; matrix H31, ligand 20.0 mg/ml
[35] = molecular target: human polyclonal IgG (Gammanorm) (human); assay: dynamic binding capacity; matrix C3, ligand 11.9 mg/ml
[36] = molecular target: human polyclonal IgG (Gammanorm) (human); assay: dynamic binding capacity; matrix H35, ligand […]
[37] = molecular target: human polyclonal IgG (Gammanorm) (human); assay: dynamic binding capacity; matrix C4, ligand 11.2 mg/ml
[38] = molecular target: human polyclonal IgG (Gammanorm) (human); assay: dynamic binding capacity; matrix H35, ligand 20.3 mg/ml
[39] = molecular target: human polyclonal IgG (Gammanorm) (human); assay: dynamic binding capacity; matrix A62a, ligand […]
[40] = molecular target: human polyclonal IgG (Gammanorm) (human); assay: dynamic binding capacity; matrix P10, ligand 19.0 mg/ml
[41] = molecular target: human polyclonal IgG (Gammanorm) (human); assay: dynamic binding capacity; matrix A56, ligand 15.2 mg/ml
[42] = molecular target: human polyclonal IgG (Gammanorm) (human); assay: dynamic binding capacity; matrix A20, ligand 6.4 mg/ml
[43] = molecular target: human polyclonal IgG (Gammanorm) (human); assay: dynamic binding capacity; matrix A54, ligand 21.1 mg/ml
[44] = molecular target: human polyclonal IgG (Gammanorm) (human); assay: dynamic binding capacity; matrix A38, ligand 11.6 mg/ml
[45] = molecular target: human polyclonal IgG (Gammanorm) (human); assay: dynamic binding capacity; matrix A56, ligand 7.9 mg/ml
[46] = molecular target: human polyclonal IgG (Gammanorm) (human); assay: dynamic binding capacity; matrix A20, ligand 21.1 mg/ml
[47] = molecular target: human polyclonal IgG (Gammanorm) (human); assay: dynamic binding capacity; matrix A56-2, ligand […]
[48] = molecular target: human polyclonal IgG (Gammanorm) (human); assay: dynamic binding capacity; matrix A56-2, ligand 12.5 mg/ml
[49] = molecular target: human polyclonal IgG (Gammanorm) (human); assay: dynamic binding capacity; matrix A63b, ligand 6.4 mg/ml
[50] = molecular target: human polyclonal IgG (Gammanorm) (human); assay: pH 6-3 citrate gradient elution from column, peak 2
[51] = molecular target: human polyclonal IgG (Gammanorm) (human); assay: pH 6-3 citrate gradient elution from column, peak 1
[52] = molecular target: IgG1 monoclonal antibody (probe molecule, Example 1); assay: SPR (Biacore), ligand on CM5 chip, IgG1 mAb as probe
[53] = molecular target: human polyclonal IgG (Gammanorm) (human); assay: dynamic binding capacity, measured after 24 h cumulative exposure to 0.5 M NaOH; ligand 10.8 mg/ml on agarose beads
[54] = molecular target: human polyclonal IgG (Gammanorm) (human); assay: dynamic binding capacity, 6 min residence; ligand 10.8 mg/ml on agarose beads

Zvar(Q9A, N11E, Q40V, A42K, N43A, L44I)4 with an additional N-terminal cysteine (Examples 4 and 5) (designed binder)
Initial IgG capacity Qb10 [1]: 56.3 mg/mL
Remaining IgG capacity Qb10 after six 4 h cycles [2]: 44.2 mg/mL
Remaining IgG capacity Qb10 after six 4 h cycles [3]: 56 mg/mL
Remaining IgG capacity Qb10 after six 4 h cycles [4]: 53.6 mg/mL
Initial IgG capacity Qb10 [5]: 60.3 mg/mL
Initial IgG capacity Qb10 [6]: 49 mg/mL

Zvar(N11K, H18K, S33K, D37E, A42R, N43A, L44I, K50R, L51Y)4 with an additional N-terminal cysteine (Examples 4 and 5) (designed binder)
Remaining IgG capacity Qb10 after six 4 h cycles [7]: 48.1 mg/mL
Initial IgG capacity Qb10 [8]: 62.1 mg/mL
Initial IgG capacity Qb10 [9]: 56.3 mg/mL
Remaining IgG capacity Qb10 after six 4 h cycles [10]: 52 mg/mL

Zvar(Q9A, N11E, N28A, N43A)4 with an additional N-terminal cysteine (Example 4) (designed binder)
Remaining IgG capacity Qb10 after six 4 h cycles [11]: 44.1 mg/mL
Initial IgG capacity Qb10 [1]: 50 mg/mL
Initial IgG capacity Qb10 [12]: 49.1 mg/mL
Remaining IgG capacity Qb10 after six 4 h cycles [4]: 46.2 mg/mL

Zvar(Q9A, N11E, Q40V, A42K, N43A, L44I)6 (designed binder)
Qb10% 2.4 min [13]: 48 mg/mL
Qb10% 6 min [13]: 57 mg/mL
Qb10% 2.4 min [14]: 38 mg/mL
Qb10% 6 min [14]: 64 mg/mL
Qb10% 2.4 min [15]: 43 mg/mL
Qb10% 6 min [15]: 61 mg/mL
Qb10% 2.4 min [16]: 55 mg/mL
Qb10% 6 min [16]: 80 mg/mL
Qb10% 2.4 min [17]: 56 mg/mL
Qb10% 6 min [17]: 75 mg/mL
Qb10% 2.4 min [18]: 31 mg/mL
Qb10% 6 min [18]: 54 mg/mL
Qb10% 2.4 min [19]: 56 mg/mL
Qb10% 6 min [19]: 72 mg/mL
Elution pH [20]: 3.81 pH
Qb10% 2.4 min [21]: 47 mg/mL
Qb10% 6 min [21]: 57 mg/mL
Qb10% 2.4 min [22]: 49 mg/mL
Qb10% 6 min [22]: 60 mg/mL
Qb10% 2.4 min [23]: 61 mg/mL
Qb10% 6 min [23]: 82 mg/mL
Qb10% 2.4 min ([24]; ligand content 6.5 mg/ml): 37 mg/mL
Qb10% 6 min ([24]; ligand content 6.5 mg/ml): 38 mg/mL
Qb10% 2.4 min ([24]; ligand content 10.4 mg/ml): 50 mg/mL
Qb10% 6 min ([24]; ligand content 10.4 mg/ml): 61 mg/mL
Elution pH [25]: 4.24 pH
Qb10% 2.4 min [26]: 50 mg/mL
Qb10% 6 min [26]: 56 mg/mL
Qb10% 2.4 min [27]: 41 mg/mL
Qb10% 6 min [27]: 65 mg/mL
Qb10% 2.4 min [28]: 48 mg/mL
Qb10% 6 min [28]: 59 mg/mL
Qb10% 2.4 min [29]: 53 mg/mL
Qb10% 6 min [29]: 69 mg/mL
Qb10% 2.4 min [30]: 38 mg/mL
Qb10% 6 min [30]: 46 mg/mL
Qb10% 2.4 min [31]: 36 mg/mL
Qb10% 6 min [31]: 62 mg/mL
Qb10% 2.4 min [32]: 44 mg/mL
Qb10% 6 min [32]: 53 mg/mL
Qb10% 2.4 min [33]: 57 mg/mL
Qb10% 6 min [33]: 82 mg/mL
Qb10% 2.4 min [34]: 31 mg/mL
Qb10% 6 min [34]: 52 mg/mL
Qb10% 2.4 min [35]: 51 mg/mL
Qb10% 6 min [35]: 73 mg/mL
Qb10% 2.4 min [36]: 36 mg/mL
Qb10% 6 min [36]: 49 mg/mL
Qb10% 2.4 min [37]: 62 mg/mL
Qb10% 6 min [37]: 74 mg/mL
Qb10% 2.4 min [38]: 20 mg/mL
Qb10% 6 min [38]: 43 mg/mL
Qb10% 2.4 min [39]: 62 mg/mL
Qb10% 6 min [39]: 84 mg/mL
Qb10% 6 min [40]: 76 mg/mL
Qb10% 2.4 min [41]: 48 mg/mL
Qb10% 6 min [41]: 76 mg/mL
Qb10% 2.4 min [42]: 41 mg/mL
Qb10% 6 min [42]: 56 mg/mL
Qb10% 2.4 min [43]: 38 mg/mL
Qb10% 6 min [43]: 65 mg/mL
Qb10% 2.4 min [44]: 48 mg/mL
Qb10% 6 min [44]: 72 mg/mL
Qb10% 2.4 min [45]: 47 mg/mL
Qb10% 6 min [45]: 55 mg/mL
Qb10% 2.4 min [46]: 44 mg/mL
Qb10% 6 min [46]: 43 mg/mL
Qb10% 2.4 min [47]: 50 mg/mL
Qb10% 6 min [47]: 58 mg/mL
Qb10% 2.4 min [48]: 59 mg/mL
Qb10% 6 min [48]: 72 mg/mL
Qb10% 2.4 min [49]: 42 mg/mL
Qb10% 6 min [49]: 46 mg/mL

MabSelect SuRe LX (GE Healthcare Life Sciences)
Elution pH [50]: 3.7 pH
Elution pH [51]: 4.01 pH

Zvar(Q9A, N11E, Q40V, A42K, N43A, L44I)1 (designed binder)
Kd [52]: 1.07 nM
koff [52]: 0.000437 s⁻¹
kon [52]: 410000 M⁻¹ s⁻¹

Zvar(Q9A, N11K, H18K, D37E, A42R)4 with an additional N-terminal cysteine (Example 4) (designed binder)
Remaining IgG capacity Qb10 after six 4 h cycles [53]: 52.5 mg/mL
Initial IgG capacity Qb10 [54]: 56.9 mg/mL
